This data set concerns the molecule itself. Nature of the data set: self-polymerization in PBS, reducing SDS-PAGE and Western blot. (In general: Immunoblotting shows a protein as a band on a membrane.)

This note sets out measurements from US20190161525A1 (NATIONAL CHENG KUNG UNIVERSITY, published 2019).

B1: Zfra1-31 (full-length zinc finger-like protein that regulates apoptosis, synthetic peptide) (peptide)
peptide: MSSRRSSSCKYCEQDFRAHTQKNAATPFLAN
notes: also called Zfra peptide; full-length Zfra
Take B1: the binding result is on record as “binds”.
